{
  "source": "patent US20170189508A1",
  "molecular_target": "HLA-A*02 (human)",
  "assay": "UV peptide exchange + b2m ELISA, exchange yield grade",
  "data": [
    {"binder": "SLTEVSLPL", "note": "[… (SEQ ID NO: 45)]", "values": [
      {"measurement": "peptide exchange yield", "result": "50 to 75", "unit": "%"}
    ]}
  ]
}
